# Source: the RNAGym collection of RNA variant scans (doi:10.7554/elife.80360)
# B1: Hammerhead Ribozyme (parent)
# chain: ACCGGAUGUGCUUUCCGGUCUGAUGAGUCCGUGAGGACGAAACAG
# Variants of: B1
# Experiment: self-cleavage, relative activity (ratio to wild type); higher = more cleavage; co-transcriptional
row,Variant,self-cleavage
1,ACCGGAUGUGCUUUCCGGUCUGAUGAGUCCGAGAGGAUGAAACAG [U32A C38U],0.915
2,ACCGGAAGUGCUUUCCGGUCUGAUGAGUCCGUGAGGACCAAACAG [U7A G39C],0.321
3,ACCGGAUGUGCUUUCCGGCCUGAUAAGUCCGUGAGGACGAAACAG [U19C G25A],0.312
4,ACCGGAUGUGCUUUACGGUCGGAUGAGUCCGUGAGGACGAAACAG [C15A U21G],0.404
5,ACCGGAUGUGCUUCCCGGUCUGAUGAGUCCAUGAGGACGAAACAG [U14C G31A],0.918
6,ACCGGAUGUGCGUUCCGGUCUGAUGAAUCCGUGAGGACGAAACAG [U12G G27A],0.914
7,ACCGGAUGUGCUUUCCGGUCUGAUCUGUCCGUGAGGACGAAACAG [G25C A26U],0.337
8,ACCGGUUGUGCUUUCCGGUCUGAUGAGUCCGUAAGGACGAAACAG [A6U G33A],0.793
9,ACCGGAUGUGCUUUCCGGUAUGAUGAGUCCGUGAGGAAGAAACAG [C20A C38A],0.292
10,ACCGGAUGCGCUUUCCGGUCUGAUGAGUCCGCGAGGACGAAACAG [U9C U32C],1.49
11,ACCGGAUGUGCUUUCCGGUCUGAUGAGUCCGUGAGGACGGACCAG [A40G A42C],0.266
12,ACCGGAUGUGCUUUCCGGUCUGACGAGUGCGUGAGGACGAAACAG [U24C C29G],0.605
13,ACCGGAUAUGCUUUCCGGUCUGAUGAGUCCGUGAGAACGAAACAG [G8A G36A],0.424
14,ACAGGAAGUGCUUUCCGGUCUGAUGAGUCCGUGAGGACGAAACAG [C3A U7A],0.687
15,ACCGGAUGUGCUUUCCGGUCAGAUGAGUCCGAGAGGACGAAACAG [U21A U32A],0.539
16,ACCGGAUAUGCUUUACGGUCUGAUGAGUCCGUGAGGACGAAACAG [G8A C15A],0.937
17,ACCGGAUGUGCUUUCCGGUCUGAUGAAUCCGUGAGGACGACACAG [G27A A41C],0.339
18,ACCGGAUGUGCGUUCGGGUCUGAUGAGUCCGUGAGGACGAAACAG [U12G C16G],0.714
19,ACCGGAUGUGCUUUACGGUCUGAUGAGUCCGUUAGGACGAAACAG [C15A G33U],0.893

row,Variant,self-cleavage
1,ACCGGAUGUGCUUUCCGGUCUGAUGAGUCCGUGAGGGCGAAACAG [A37G],0.886
2,ACCGGGUGUGCUUUCCGGUCUGAUGAGUCCGUGAGGAAGAAACAG [A6G C38A],0.454
3,ACCGAAUGUGCUUUCCGGUCUGAUGAGUCCGUGACGACGAAACAG [G5A G35C],0.66
4,ACCAGAUGUGCUUUCCGGUCUGAUGAGUCCGUGAGGACGAAUCAG [G4A A42U],0.319
5,ACCGGAUGUGCUUUCCGGACUGAUGAGUCCGUUAGGACGAAACAG [U19A G33U],0.398
6,ACCGGGUGUGCUUUCCGGUCUGAUGAGUCCGUGAGGACGAAACCG [A6G A44C],0.523
7,ACCAGAUGUGCUUUCCGGUCUGAUGAGUCCGUGAGGACGAAACAA [G4A G45A],0.348
8,ACCGGGUGUGCUUUCCGGUCUGCUGAGUCCGUGAGGACGAAACAG [A6G A23C],0.277
9,ACCGGAUGUGCUUUCCGGACUGAUGAGUCGGUGAGGACGAAACAG [U19A C30G],0.28
10,ACCGGAUGUGCUUUCCGGUCUGCUGAGUCGGUGAGGACGAAACAG [A23C C30G],0.354
11,ACCAGAUGUGCUUUCCGGUCUGAUGGGUCCGUGAGGACGAAACAG [G4A A26G],0.35
12,ACCGGAUGUGCUUUCCGGUCUGAUGAGUCCGUGAGGUCGAAAAAG [A37U C43A],0.31
13,ACCGGAUGUGCUUUCCUGUCUGAUCAGUCCGUGAGGACGAAACAG [G17U G25C],0.319
14,ACCGGAUGUGCUUUCCGGUCAGAUGAGUCCGUGAGGACGCAACAG [U21A A40C],0.315
15,ACCGGAUGCGCUUUCCGGGCUGAUGAGUCCGUGAGGACGAAACAG [U9C U19G],0.525
16,AACGGAUGUGCUUUCCGGUCUGAUGAGUCCGUGAGAACGAAACAG [C2A G36A],0.353
17,ACCGUAUGUGCUUUCCGGUCGGAUGAGUCCGUGAGGACGAAACAG [G5U U21G],0.419
18,ACCGGAUGUACUUUCCGGUAUGAUGAGUCCGUGAGGACGAAACAG [G10A C20A],0.451
19,GCCGGCUGUGCUUUCCGGUCUGAUGAGUCCGUGAGGACGAAACAG [A1G A6C],0.838

row,Variant,self-cleavage
1,ACCGGAUGUGCUUUCCGGUCUGAUGAGUCCGUGUGGGCGAAACAG [A34U A37G],0.757
2,ACCGGAUGUGCUUUCCGGUCUGCUGAGUCCGUGAGGCCGAAACAG [A23C A37C],0.384
3,CCCGGAUGUGCUUUCCGGUCUGAUGAGUCCGUGAGGACGAAACAC [A1C G45C],0.441
4,ACCGGAUGUGCUUUCCGGUCUGAUGAGUCAGUGAGAACGAAACAG [C30A G36A],0.573
5,ACCGGAUGUGCUUUCCGGUCUGAUGAGUCCGUGAGCACGAAAAAG [G36C C43A],0.35
6,ACCGGAUGUGCUUUUCGGUCUGAUGAGUCCGUGAGGGCGAAACAG [C15U A37G],0.789
7,ACCGGUUGUGCUUUCCGGUCUGAUGAGUUCGUGAGGACGAAACAG [A6U C29U],0.451
8,ACCGGAUGGGCUUUCAGGUCUGAUGAGUCCGUGAGGACGAAACAG [U9G C16A],0.835
9,ACCGGAUGUGCUUUCCGGUCUGAUGAGUCCGUGAGCACAAAACAG [G36C G39A],0.29
10,GCCGGAUGUGCUUCCCGGUCUGAUGAGUCCGUGAGGACGAAACAG [A1G U14C],1.19
11,ACGGGAUGUGCUUUCCGGUCUGAUGAGUCCGUGAGGACGACACAG [C3G A41C],0.299
12,ACCGGAUGUGCUUACGGGUCUGAUGAGUCCGUGAGGACGAAACAG [U14A C16G],0.403
13,ACCGGAUGUGCUUUCCGGUGUCAUGAGUCCGUGAGGACGAAACAG [C20G G22C],0.43
14,ACCGGAUGUGCUUUCCGGUCUGAUGAGUCCGUGAGGACGAAAUUG [C43U A44U],0.346
15,ACCGGAUGGGCUUUCCGGUCUGAUGAGUCCGUGAGCACGAAACAG [U9G G36C],0.593
16,ACCGGAUGUGCUUUCCGGUCUAAUGAGUCCGUGAGGACGUAACAG [G22A A40U],0.366
17,ACCGGAUGUGCUUUUCGGUCUGAAGAGUCCGUGAGGACGAAACAG [C15U U24A],0.853
18,ACCGAAUGUGCUUUCCCGUCUGAUGAGUCCGUGAGGACGAAACAG [G5A G17C],0.434
19,ACCGCAUCUGCUUUCCGGUCUGAUGAGUCCGUGAGGACGAAACAG [G5C G8C],0.77
